Measured values taken from patent US8796209B2, “Compositions and methods related to anti-FGF agents” (The Regents of the University of California, priority 2005, dated 2014).
Entries after “also recorded” stand apart in the source; their conditions may differ.

T1: FGFR1 D2D3 fragment (Homo sapiens, UniProt P11362)
T1 construct: A DNA fragment encoding amino acid residues 140 to 365 of the immunoglobulin-like domains D2 and D3 of FGFR; made in house
T1 sequence (P11362 140-365): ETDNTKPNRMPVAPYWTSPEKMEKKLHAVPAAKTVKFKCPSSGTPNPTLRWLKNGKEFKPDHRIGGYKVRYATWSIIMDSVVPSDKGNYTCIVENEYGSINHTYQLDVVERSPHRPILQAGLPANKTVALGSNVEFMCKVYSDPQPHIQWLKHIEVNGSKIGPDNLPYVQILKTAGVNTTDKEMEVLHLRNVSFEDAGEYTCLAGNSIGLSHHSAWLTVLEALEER


Legend:
integrin αvβ3 = biological target: T2, integrin αvβ3 (Homo sapiens, UniProt P05106+P06756); experiment: Soluble integrin binding assay (ELISA-type), soluble αvβ3 on immobilized FGF; settings: for effect of the mutation on binding of soluble αvβ3 to FGF-1: mutant coated to plate; for αvβ3 binding: phenotype of FGF-1 mutants, Table 2
T2 construct: using the soluble αv and β3 expression constructs provided by Tim Springer; made in house; host or cells: CHO K1
Method: Wells of 96-well microtiter plates were coated with 10 μg/ml FGF-1 or FGF-2 and remaining protein binding sites were blocked with 1 mg/ml BSA. Recombinant soluble αvβ3 (50 μl/well at 5 μg/ml in Hepes-Tyrode buffer supplemented with 1 mM MnCl2) was added to wells and incubated for 1 h at room temperature. Soluble αvβ3 was incubated with 10 μg/ml 7E3 (white bar) or mouse IgG (black bar) for 10 min on ice prior to adding to the wells. BSA (circle) was used as a negative control. Data is shown as means+/−SD of triplicate experiments.
FGF-1 (10 μg/m) was heat-treated at indicated temperature for 10 min prior to immobilization. Binding of soluble αvβ3 was determined as described in FIG. 1. Data is shown as percent binding+/−SD of triplicate experiments.
Amino acid residues in the integrin-binding site or in the FGFR-binding site were mutated individually or in groups. Wild-type (diamond), R50E (open square), N33A (closed square), 4xE (circle), 3xA (triangle) were coated to a plastic plate various concentration as indicated and the binding of soluble αvβ3 was determined as described in FIG. 2. BSA (cross) was used as a negative control. […] “4xE” represents the K127E/K128E/K133E/R134E mutant. “3xA” represents the E102A/Y109A/Q110A mutant.
Binding assays were performed as previously described (Takagi et al., 2001). Native or heat-denatured FGF-1 in 0.1 M carbonate buffer, pH 9.4, were incubated in a polystyrene 96-well non-tissue culture plates surface overnight at 4° C. Unbound FGF-1 was removed, and 200 μl of 0.1% bovine serum albumin in PBS was added and incubated for 60 min at room temperature. The wells were washed with PBS and soluble integrin αvβ3 in 50 μl in Hepes-Tyrode buffer supplemented with 1 mM Mn^2+ were added to the wells and incubated at room temperature for 60 min. After non-bound soluble integrin were removed by rinsing the wells with the same buffer. Horseradish peroxidase (HRP) conjugated anti His-tag mouse IgG was added to well and incubated 60 min. Non-bound antibodies were removed by rinsing the wells with the same buffer, bound integrins were quantified by measuring the absorbance of 450 nm developed from adding the substrate (3,3′,5,5′-tetramethylbenzidine) of HRP unbound protein was aspirated, and the wells were washed with PBS three times.

FRS2α = experiment: FRS2 phosphorylation, western blot; format: cell-based; settings: mouse fibroblasts
Method: The same cell lysates as described above were analyzed by western blotting with anti-phospho FRS2 or anti-FRS2, where; 1: Wild type; 2: R50E; 3: 4xE; 4: 3xA; 5: None; and 6: FBS.
This experiment tested how the FGF1 mutations affect phosphorylation of FRS2α.

FGFR1 D2D3 fragment = biological target: T1, FGFR1 D2D3 fragment; experiment: Competition with biotinylated FGF-1 for immobilized FGF receptor D2D3 fragments; format: binding; settings: for effect of the mutation on binding of the FGFR1 D2D3 fragment: competition with 1 μg/ml biotinylated FGF-1; for FGFR binding: phenotype of FGF-1 mutants, Table 2
Method: One μg/mi biotinylated FGF-1 and increasing concentrations of unlabelled FGF-1 or FGF-1 mutants were incubated for 1 h at RT with immobilized FGF receptor D2D3 fragments. Then the plate was washed and the bound biotinylated FGF were measured using an avidin conjugated HRP. Unlabeled wild-type (diamond) FGF-1, the R50E (square), 4xE (circle), and 3xA (triangle) FGF-1 mutants were used.
A DNA fragment encoding amino acid residues 140 to 365 of the immunoglobulin-like domains D2 and D3 of FGFR was amplified by PCR with the full length human FGFR1 cDNA in the pcDNA3 (gift from Ann Hanneken, the Scripps Research Institute, La Jolla, Calif.) as a template. A Bam HI restriction site was introduced at the 5′ end, Xho I site at the 3′ end of the cDNA fragment with the following primers: 5′-[…]-3′ (SEQ ID NO:5), 5′-[…]-3′ (SEQ ID NO:6). The resulting cDNA fragment was subcloned into the Bam HI/Xho I sites of the vector pET21a, and transformed into BL21 (DE3).
The protein was expressed as an insoluble protein, refolded as described (Plotnikov et al., 2000). The refolded protein was purified by affinity chromatography using the FGF-1 coupled to CNBr-activated Sepharose (Amersham Pharmacia Biotech) as an affinity matrix. FGF-1-Sepharose was incubated with crude refolded proteins 16 h at 4° C. After binding, the affinity matrix was washed with buffer containing 100 mM NaCl and 50 mM Tris (pH 7.4); and eluted with 1.2M NaCl, and 50 mM Tris (pH 7.4).

Balb 3T3 cells = experiment: Scratch wound healing assay; format: cell-based, mouse; settings: for Wound healing: phenotype of FGF-1 mutants, Table 2; for effect on migration of Balb3T3 cells in scratch wound healing assays: with 5 μg/ml heparin, 24 h
Method: Confluent serum-starved Balb 3T3 cells were scratched. After washing with serum-free medium, cells were incubated in DMEM containing 5 μg/ml heparin and 5 ng/ml wild-type or mutant FGF-1s for 24 h at 37° C. Controls contain medium alone (none) or medium containing 10% fetal calf serum (FCS).
Balb 3T3 cells were plated into 6-well cell culture plate. Cells were allowed to grow in DMEM containing 10% fetal calf serum for overnight, and then cells were washed with serum-free medium and starved for 24 h. A scratch was made across the cell layer using a pipette tip. After washing with serum-free medium twice, DMEM containing 10 ng/ml wild type or mutant FGF-1 together with 5 μg/ml heparin were added to cells. Plates were photographed at 0, 6, 12, and 24 h.

T2 sequence (P06756 31-992 limits assumed): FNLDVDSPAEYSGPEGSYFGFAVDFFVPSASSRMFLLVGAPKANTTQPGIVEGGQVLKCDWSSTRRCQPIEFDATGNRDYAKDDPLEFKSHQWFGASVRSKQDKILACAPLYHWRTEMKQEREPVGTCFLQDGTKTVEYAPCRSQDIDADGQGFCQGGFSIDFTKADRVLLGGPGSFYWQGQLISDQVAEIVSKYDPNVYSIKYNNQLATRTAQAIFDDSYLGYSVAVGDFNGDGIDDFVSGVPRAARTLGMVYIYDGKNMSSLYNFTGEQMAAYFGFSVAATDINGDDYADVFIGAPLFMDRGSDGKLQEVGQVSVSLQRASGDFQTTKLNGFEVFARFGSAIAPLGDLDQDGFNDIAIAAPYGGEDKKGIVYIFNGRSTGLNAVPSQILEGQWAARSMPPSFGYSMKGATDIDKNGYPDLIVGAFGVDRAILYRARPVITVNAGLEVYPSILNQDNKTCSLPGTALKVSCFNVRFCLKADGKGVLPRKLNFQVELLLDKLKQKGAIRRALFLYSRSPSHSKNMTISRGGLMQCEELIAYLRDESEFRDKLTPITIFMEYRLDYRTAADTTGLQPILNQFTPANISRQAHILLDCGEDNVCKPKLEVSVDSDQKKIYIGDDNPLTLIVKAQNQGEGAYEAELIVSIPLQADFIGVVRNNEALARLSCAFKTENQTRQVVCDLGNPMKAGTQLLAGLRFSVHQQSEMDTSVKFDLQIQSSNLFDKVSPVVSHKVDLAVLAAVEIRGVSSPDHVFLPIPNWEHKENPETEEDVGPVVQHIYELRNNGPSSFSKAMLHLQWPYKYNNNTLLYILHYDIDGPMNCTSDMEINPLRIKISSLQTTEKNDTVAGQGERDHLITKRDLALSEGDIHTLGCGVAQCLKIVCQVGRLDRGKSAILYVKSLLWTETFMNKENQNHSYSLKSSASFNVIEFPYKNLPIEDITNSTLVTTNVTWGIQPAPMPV
T2 sequence (P05106 27-718 limits assumed): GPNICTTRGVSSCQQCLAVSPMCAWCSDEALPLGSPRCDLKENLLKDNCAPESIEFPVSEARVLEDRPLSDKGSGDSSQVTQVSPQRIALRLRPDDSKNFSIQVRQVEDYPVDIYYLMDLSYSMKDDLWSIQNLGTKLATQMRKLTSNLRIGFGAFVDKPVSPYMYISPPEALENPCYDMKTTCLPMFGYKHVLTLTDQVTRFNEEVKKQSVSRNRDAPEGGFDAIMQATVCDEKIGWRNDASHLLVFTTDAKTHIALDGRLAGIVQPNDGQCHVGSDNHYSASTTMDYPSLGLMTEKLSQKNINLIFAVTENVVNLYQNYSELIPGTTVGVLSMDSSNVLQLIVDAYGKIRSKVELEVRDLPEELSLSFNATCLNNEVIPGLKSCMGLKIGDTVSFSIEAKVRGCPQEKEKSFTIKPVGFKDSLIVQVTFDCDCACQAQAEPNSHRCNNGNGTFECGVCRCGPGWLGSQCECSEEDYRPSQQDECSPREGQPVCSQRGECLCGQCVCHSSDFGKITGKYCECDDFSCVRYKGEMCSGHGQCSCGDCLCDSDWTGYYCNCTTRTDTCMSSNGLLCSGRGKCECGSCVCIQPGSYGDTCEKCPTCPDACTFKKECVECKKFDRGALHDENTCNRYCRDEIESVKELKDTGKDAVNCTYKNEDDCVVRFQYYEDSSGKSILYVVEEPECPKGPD

| effect of the mutation on binding of soluble αvβ3 to FGF-1 (integrin αvβ3) | αvβ3 binding (integrin αvβ3) | effect of the mutation on binding of the FGFR1 D2D3 fragment (FGFR1 D2D3 fragment) | FGFR binding (FGFR1 D2D3 fragment) | binding of soluble αvβ3 to the immobilized protein (integrin αvβ3; coated at 10 μg/ml, soluble αvβ3 5 μg/ml, 1 mM MnCl2) | binding of soluble αvβ3 to heat-denatured protein (integrin αvβ3; heat-denatured, heat-treated 10 min before immobilization) | Molecule | FRS2α phosphorylation (FRS2α) | Wound healing (Balb 3T3 cells) | effect on migration of Balb3T3 cells in scratch wound healing assays (Balb 3T3 cells) |
| --- | --- | --- | --- | --- | --- | --- | --- | --- | --- |
|  | Normal |  | Normal | bound | did not bind | Wild type: human FGF-1 (acidic FGF), wild type, expressed in E. coli | induced | Normal |  |
| did not affect | Normal | effectively blocked | Low |  |  | 3xA: FGF-1 mutant, three residues in the FGFR binding site (Glu102/Tyr109/Asn110) to Ala (protein) FNLPPGNYKKPKLLYCSNGGHFLRILPDGTVDGTRDRSDQHIQLQLSAESVGEVYIKSTETGQYLAMDTDGLLYGSQTPNEECLFLARLEENHAATYISKKHAEKNWFVGLKKNGSCKRGPRTHYGQKAILFLPLPVSSD | abolished | Low | effectively blocked |

Second part, the molecule before the results:

| Molecule | effect of the mutation on binding of soluble αvβ3 to FGF-1 (integrin αvβ3) | αvβ3 binding (integrin αvβ3) | effect of the mutation on binding of the FGFR1 D2D3 fragment (FGFR1 D2D3 fragment) | FGFR binding (FGFR1 D2D3 fragment) | binding of soluble αvβ3 to the immobilized protein (integrin αvβ3; coated at 10 μg/ml, soluble αvβ3 5 μg/ml, 1 mM MnCl2) | binding of soluble αvβ3 to heat-denatured protein (integrin αvβ3; heat-denatured, heat-treated 10 min before immobilization) | FRS2α phosphorylation (FRS2α) | Wound healing (Balb 3T3 cells) | effect on migration of Balb3T3 cells in scratch wound healing assays (Balb 3T3 cells) |
| --- | --- | --- | --- | --- | --- | --- | --- | --- | --- |
| R50E: FGF-1 mutant with the Arg-50 to Glu (R50E) mutation | blocked the binding; also recorded: effectively blocked | Low | did not block | Normal |  |  | abolished | Low | effectively blocked |
| 4xE: FGF-1 mutant, Lys127/Lys128/Lys133/Arg134 simultaneously to Glu (protein) FNLPPGNYKKPKLLYCSNGGHFLRILPDGTVDGTRDRSDQHIQLQLSAESVGEVYIKSTETGQYLAMDTDGLLYGSQTPNEECLFLERLEENHYNTYISKKHAEKNWFVGLEENGSCEEGPRTHYGQKAILFLPLPVSSD | effectively blocked | Low | did not block | Normal |  |  | abolished | Low | effectively blocked |
